# Experimental data as given in US20250313611A1.
# “And” between values parts separate entries of the source, which are not always exact repeats. Equal entries are not always repeated.
# Target: spike proteins of the tested omicron
# Experiment: cell-based or functional assay
binder,measurement,value
VHH R3_DC23 (VHH) VHH: QVQLQESGGGLVQAGDSLTLSCAVSGRIFSTYTMGWFRQAPGKEREFVAAVRWGAGTIYYADSMKGRFTISRDSAKNTVDLQMNSTKPEDTAVYYCGAAYVSKANYGSLWYQDSRRYDYWGQGTQVTVSS,"IC50, neutralisation of VSV spike pseudotypes",2.9 ng/mL and 5.7 ng/mL
